Assay results as given in patent US20030157096A1 (ZymoGenetics, published 2003).

Assays:
[1] = target: T1, CRF2-4 receptor, full-length, on transfected BaF3 or BHK cells (CRF2-4 alone) (UniProt Q08334 20-325, limits assumed); experiment: flow cytometry, biotinylated IL-TIF-CEE plus PE-streptavidin on BaF3 transfectants (same results stated for BHK transfectants)
T1 construct: whole, on cells; The full-length receptor on cells is tied only to Genbank Z17227; also called CFR2-4; BaF3/CRF2-4
T1 sequence (looked up): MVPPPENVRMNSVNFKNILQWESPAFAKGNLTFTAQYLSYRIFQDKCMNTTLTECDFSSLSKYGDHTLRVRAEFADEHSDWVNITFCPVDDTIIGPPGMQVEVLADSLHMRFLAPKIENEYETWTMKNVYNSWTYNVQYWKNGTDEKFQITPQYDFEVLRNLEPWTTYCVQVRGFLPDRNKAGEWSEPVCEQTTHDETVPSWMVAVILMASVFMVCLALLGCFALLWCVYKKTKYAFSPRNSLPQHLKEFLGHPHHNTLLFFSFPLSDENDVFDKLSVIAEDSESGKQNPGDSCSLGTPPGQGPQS
Text: (§1) To test the binding properties of the IL-TIF ligand to several potential receptor components, BaF3 and BHK cells were transfected with expression plasmids including zcytor11 alone, CRF2-4 alone (Genbank Accession No. Z17227), zcytor11 (SEQ ID NO:1) and CRF2-4, or zcytoR11 and pDIRS1 (WIPO Publication WO99/46379, Schering Corporation, 1999), as described above. Untransfected BaF3 and BHK cells were included as controls. Cells were resuspended in FACS wash buffer (WB: PBS/1%BSA, supplemented with 3% human Ultraserum (Gemini BioProducts, Calabasas, Calif.)) counted and 1×10⁶ of each type were aliquoted into 5 ml polystyrene tubes. Cells were washed and pelleted, then incubated for 20 min on ice with 100 μl of WB only, or WB plus 10 μg/ml or 1 μg/ml biotinylated zcytolO protein. Cells were washed with 1.5 ml WB and pelleted, then incubated in 100 μl of 2.5 μg/ml phycoerthyrin-conjugated streptavidin (PE-SA, PharMingen, San Diego, Calif.) for another 20 min on ice. Cells were washed as before, resuspended in 0.4 ml of WB and analyzed on a FACScan using CellQuest software (Becton Dickinson, Mountain View, Calif.).

[2] = target: T2, zcytor11 and CRF2-4 receptors co-expressed on transfected BaF3 or BHK cells (human, UniProt Q08334 20-325, limits assumed); experiment: flow cytometry, biotinylated IL-TIF-CEE at 10 or 1 µg/ml plus PE-streptavidin on BaF3 transfectants (same results stated for BHK transfectants)
T2 construct: whole, on cells; The two receptor subunits are co-transfected in one cell line; also called zcytor11/CRF2-4; BaF3/zcytor11/CRF2-4
T2 sequence 1: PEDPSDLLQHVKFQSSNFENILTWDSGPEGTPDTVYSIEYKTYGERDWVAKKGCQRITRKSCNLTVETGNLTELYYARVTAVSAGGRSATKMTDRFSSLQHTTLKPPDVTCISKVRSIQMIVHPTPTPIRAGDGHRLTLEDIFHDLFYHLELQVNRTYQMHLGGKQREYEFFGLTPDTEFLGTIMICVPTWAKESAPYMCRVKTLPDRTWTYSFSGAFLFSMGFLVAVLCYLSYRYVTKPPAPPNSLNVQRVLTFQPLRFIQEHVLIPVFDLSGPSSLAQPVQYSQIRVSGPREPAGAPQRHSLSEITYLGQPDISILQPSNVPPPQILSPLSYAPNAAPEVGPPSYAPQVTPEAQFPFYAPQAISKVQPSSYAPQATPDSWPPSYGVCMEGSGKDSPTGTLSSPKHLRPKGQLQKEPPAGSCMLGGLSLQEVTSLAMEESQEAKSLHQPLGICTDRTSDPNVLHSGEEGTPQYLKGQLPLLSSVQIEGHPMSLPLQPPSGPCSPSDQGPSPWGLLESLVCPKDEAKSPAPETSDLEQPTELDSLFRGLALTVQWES
T2 sequence 2: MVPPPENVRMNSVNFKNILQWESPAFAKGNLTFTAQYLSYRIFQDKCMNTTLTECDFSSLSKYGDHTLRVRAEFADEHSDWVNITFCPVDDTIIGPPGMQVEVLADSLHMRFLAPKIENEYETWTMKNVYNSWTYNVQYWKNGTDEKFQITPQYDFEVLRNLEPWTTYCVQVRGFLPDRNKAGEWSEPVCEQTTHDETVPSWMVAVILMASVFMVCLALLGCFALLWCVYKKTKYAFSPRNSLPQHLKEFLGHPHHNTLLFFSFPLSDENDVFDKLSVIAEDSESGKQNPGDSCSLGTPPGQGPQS
Text: as §1

[3] = target: T3, zcytor11 receptor, full-length, on transfected BaF3 or BHK cells (zcytor11 alone) (human, UniProt Q8N6P7 18-574); experiment: as above
T3 construct: also called BaF3/zcytor11
T3 sequence: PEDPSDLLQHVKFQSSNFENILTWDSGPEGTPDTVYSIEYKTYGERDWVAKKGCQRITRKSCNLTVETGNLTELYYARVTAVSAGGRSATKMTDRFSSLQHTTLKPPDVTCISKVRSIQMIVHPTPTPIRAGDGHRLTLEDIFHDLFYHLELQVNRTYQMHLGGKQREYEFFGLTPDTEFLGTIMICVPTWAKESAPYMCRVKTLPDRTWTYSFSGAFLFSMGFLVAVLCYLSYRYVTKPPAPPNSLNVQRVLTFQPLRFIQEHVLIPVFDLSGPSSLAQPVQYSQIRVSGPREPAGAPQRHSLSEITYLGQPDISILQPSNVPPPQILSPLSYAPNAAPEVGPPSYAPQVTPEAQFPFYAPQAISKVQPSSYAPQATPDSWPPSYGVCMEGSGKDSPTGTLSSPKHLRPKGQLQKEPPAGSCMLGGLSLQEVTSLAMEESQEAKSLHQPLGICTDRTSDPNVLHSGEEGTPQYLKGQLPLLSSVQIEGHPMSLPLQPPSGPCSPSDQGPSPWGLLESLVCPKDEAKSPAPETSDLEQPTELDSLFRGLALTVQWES
Text: as §1

binding result [2]: binds
binding result [3]: binds
B1: biotinylated human IL-TIF-CEE (ligand)
chain: APISSHCRLDKSNFQQPYITNRTFMLAKEASLADNNTDVRLIGEKLFHGVSMSERCYLMKQVLNFTLEEVLFPQSDRFQPYMQEVVPFLARLSNRLSTCHIEGDDLHIQRNVQKLKDTVKKLGESGEIKAIGELDLLFMSLRNACIEYMPME
modifications: biotinylated with EZ-link Sulfo-NHS-LC-biotin (sites not given)
notes: also called biotin-IL-TIF; IL-TIF ligand
binding result [1]: no binding (tested: 10 µg/ml or 1 µg/ml biotinylated protein)
